Reference: patent US20200181257A1 (Chugai, published 2020)
Numbering of substitutions follows the chain as printed. Names and notes keep the numbering of the source.

B1: TS42 (antibody)
heavy: QVQLQESGPGLVRPSQTLSLTCTVSGYSITSDHAWSWVRQPPGRGLEWIGYISYSGITTYNPSLKSRVTMLRDTSKNQFSLRLSSVTAADTAVYYCARSLARTTAMDYWGQGSLVTVSSASTKGPSVFPLAPSSKSTSGGTAALGCLVKDYFPEPVTVSWNSGALTSGVHTFPAVLQSSGLYSLSSVVTVPSSSLGTQTYICNVNHKPSNTKVDKKVEPKSCDKTHTCPPCPAPEKRGGPSVFLFPPKPKDTLMISRTPEVTCVVVDVSHEDPEVKFNWYVDGVEVHNAKTKPREEMGNGTYRVVSVLTVLHQDWLNGKEYKCKVSGKALPAPIEKTISKAKGQPREPQVYTLPPSRDELTKNQVSLTCLVKGFYPSDIAVEWESNGQPENNYKTTPPVLDSDGSFFLYSKLTVDKSRWQQGNVFSCSVMHEALHNHYTQKSLSLSP
light: not shown
notes: anti-IL6R IgG1, G1d with L234K/L235R/Q295M/Y296G/S298G/N325G (EU)
B2: TS61 (antibody)
heavy: B1 heavy with K236L, R237L, M297Q, G298Y, G300S, G327N, G387D, Q388P, N391S
light: not shown
notes: anti-IL6R IgG1, G1d with G385D/Q386P/N389S (EU)
B3: TS43 (antibody)
heavy: B1 heavy with G327H
light: not shown
notes: anti-IL6R IgG1, G1d with L234K/L235R/Q295M/Y296G/S298G/N325H (EU)
B4: TS41 (antibody)
heavy: B1 heavy with H270K, D272F, G327H
light: not shown
notes: anti-IL6R IgG1, G1d with L234K/L235R/H268K/D270F/Q295M/Y296G/S298G/N325H (EU)
B5: TS40 (antibody)
heavy: B1 heavy with H270K, D272F
light: not shown
notes: anti-IL6R IgG1, G1d with L234K/L235R/H268K/D270F/Q295M/Y296G/S298G/N325G (EU)
B6: TS2 (antibody)
heavy: B1 heavy with K236L, R237L, V268I, H270Q, E271D, D272E, M297Q, G298Y, G300S, G327N
light: not shown
notes: anti-IL6R IgG1, G1d with V266I/H268Q/E269D/D270E (EU); also called TS02
B7: TS16 (antibody)
heavy: B1 heavy with K236L, R237L, G327N
light: not shown
notes: anti-IL6R IgG1, G1d with Q295M/Y296G/S298G (EU)
B8: TS13 (antibody)
heavy: B1 heavy with K236L, R237L, S269P, H270M, D272F, M297Q, G298Y, G300S, G327N
light: not shown
notes: anti-IL6R IgG1, G1d with S267P/H268M/D270F (EU)
B9: TS7 (antibody)
heavy: B1 heavy with K236L, R237L, M297Q, G298Y, G300S, S326H, G327N, K328S, A332H
light: not shown
notes: anti-IL6R IgG1, G1d with K326S/S324H/A330H (EU); also called TS07

These binders were tested against T1, human Fcγ receptor hFcgRIa (human, UniProt P12314 16-292, limits assumed) (assay: SPR, antibody captured on Protein A).
T1 construct: Construct used in the SPR assay is not described; also called hFcγRIa; FcγI
T1 sequence (P12314 16-292 limits assumed): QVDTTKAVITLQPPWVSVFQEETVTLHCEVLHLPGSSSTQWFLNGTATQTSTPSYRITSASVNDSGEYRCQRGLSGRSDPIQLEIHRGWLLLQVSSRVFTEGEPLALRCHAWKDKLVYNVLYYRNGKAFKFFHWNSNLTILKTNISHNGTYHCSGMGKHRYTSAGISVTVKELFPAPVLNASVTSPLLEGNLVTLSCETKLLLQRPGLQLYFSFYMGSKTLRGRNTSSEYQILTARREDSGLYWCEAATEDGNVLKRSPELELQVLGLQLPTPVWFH
Protocol: (§1) Furthermore, binding ability to hFcgRs was measured by the method described in Reference Example 3.
(§2) Interactions between antibodies and hFcgRs (hFcgRIa, hFcgRIIa(R), hFcgRIIa(H), hFcgRIIb, hFcgRIIIa(F), and hFcgRIIIa(V)) were analyzed using Biacore T100 (GE Healthcare). HBS-EP+(GE Healthcare) was used for the running buffer, and the measurement temperature was set at 25° C. Protein A (Invitrogen) was immobilized by the amino coupling method, and an antibody of interest was captured thereon. Then, hFcγR solutions diluted using the running buffer were injected to allow interaction with the captured antibody at a flow rate of 30 μL/min for five minutes for hFcγRIa, and at a flow rate of 5 μL/min for one minute for the other hFcγRs. […] Since the hFcγR binding level depends on the amount of captured antibodies, the FcgR-binding levels were corrected so that the capture level of each antibody would be 200 RU (resonance unit) for hFcgRIa and 1000 RU (resonance unit) for the other hFcgRs. The captured antibodies were washed by allowing 10 mM glycine-HCl (pH 1.5) to react for 30 seconds at a flow rate of 30 μL/min to recycle the chip for reuse.
B1 was tested, and the “binding relative to G1 (=100)” value was -0.2. In the case of B2, the “binding relative to G1 (=100)” value is reported as 101. With B3 the “binding relative to G1 (=100)” value was -0.9. For B4, the “binding relative to G1 (=100)” value was 0.2. In the case of B5, the “binding relative to G1 (=100)” value is reported as -1.8.

What follows are binders tested against T2, human Fcγ receptor hFcgRIIIa (V) (human, UniProt P08637 17-208) (assay: SPR, antibody captured on Protein A).
T2 construct: also called FcγRIIIa allotype V158; FcγIIIA
T2 sequence (P08637 other isoform, or with tags, fused parts or gaps limits assumed): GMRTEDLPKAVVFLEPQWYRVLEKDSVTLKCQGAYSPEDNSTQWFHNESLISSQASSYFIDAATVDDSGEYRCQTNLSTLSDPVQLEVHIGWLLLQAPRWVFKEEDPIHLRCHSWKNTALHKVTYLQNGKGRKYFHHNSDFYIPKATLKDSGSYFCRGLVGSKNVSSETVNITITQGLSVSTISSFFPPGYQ
Protocol: as §1, §2
B1 was tested, and the “binding relative to G1 (=100)” value was 1.3. For B2, the “binding relative to G1 (=100)” value was 96.6. In the case of B3, the “binding relative to G1 (=100)” value is reported as 1.1. B4 was tested, and the “binding relative to G1 (=100)” value was 1. For B5, the “binding relative to G1 (=100)” value was 1.

What follows are binders tested against T3, human Fcγ receptor hFcgRIIa (H) (human, UniProt P12318 36-217) (assay: SPR, antibody captured on Protein A).
T3 construct: also called FcγRIIa (type H); FcγIIA
T3 sequence: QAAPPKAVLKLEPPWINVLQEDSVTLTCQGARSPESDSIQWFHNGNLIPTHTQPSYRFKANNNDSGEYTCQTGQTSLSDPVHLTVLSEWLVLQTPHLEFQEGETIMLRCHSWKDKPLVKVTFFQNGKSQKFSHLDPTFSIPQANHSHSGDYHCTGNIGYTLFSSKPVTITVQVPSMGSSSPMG
Protocol: as §1, §2
In the case of B1, the “binding relative to G1 (=100)” value is reported as 1.6. In the case of B2, the “binding relative to G1 (=100)” value is reported as 106. B3 was tested, and the “binding relative to G1 (=100)” value was -0.1. In the case of B4, the “binding relative to G1 (=100)” value is reported as 1.4. For B5, the “binding relative to G1 (=100)” value was 0.7.

The binders below were run against T4, human Fcγ receptor hFcgRIIb (human, UniProt P31994 43-217, limits assumed) (assay: SPR, antibody captured on Protein A).
T4 construct: Construct used in the SPR assay is not described; also called FcγRIIb; FcγIIB
T4 sequence: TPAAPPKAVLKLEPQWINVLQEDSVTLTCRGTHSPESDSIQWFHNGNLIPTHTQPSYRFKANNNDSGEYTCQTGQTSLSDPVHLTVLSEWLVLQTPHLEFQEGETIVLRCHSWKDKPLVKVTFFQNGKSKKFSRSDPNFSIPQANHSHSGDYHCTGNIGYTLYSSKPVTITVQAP
Protocol: as §1, §2
In the case of B1, the “binding relative to G1 (=100)” value is reported as 6.9. In the case of B2, the “binding relative to G1 (=100)” value is reported as 112. For B3, the “binding relative to G1 (=100)” value was 6.2. For B4, the “binding relative to G1 (=100)” value was 4.2. For B5, the “binding relative to G1 (=100)” value was 0.3.

Biological target: T5, human Fcγ receptor hFcgRIIa (R) (human, UniProt P12318 36-217)
T5 construct: also called FcγRIIa (type R); FcγIIA
T5 chain: T3 sequence with H133R
Test: SPR, antibody captured on Protein A
Protocol: as §1, §2
In the case of B1, the “binding relative to G1 (=100)” value is reported as 1.3. B2 was tested, and the “binding relative to G1 (=100)” value was 106. In the case of B3, the “binding relative to G1 (=100)” value is reported as 1.7. B4 was tested, and the “binding relative to G1 (=100)” value was 1.2. B5 was tested, and the “binding relative to G1 (=100)” value was 1.2.

Biological target: T1, human Fcγ receptor hFcgRIa
Test: SPR, antibody captured on Protein A
Remark: another data set of the same source
Protocol: (§3) The CH2 domain, which was modified in this examination, is known to be involved in interaction with several human Fcγ receptors (hereinafter denoted as hFcgRs) which affect effector functions. Therefore, the binding of TS1 and TS19 prepared by using the H chain of anti-IL6R produced in Example 2 to hFcgRs was measured, according to the method described in Reference Example 3.
as §2
B6 was tested, and the “binding relative to G1 (=100)” value was 98.3. B7 was tested, and the “binding relative to G1 (=100)” value was 96.8. For B8, the “binding relative to G1 (=100)” value was 63. With B9 the “binding relative to G1 (=100)” value was 99.8.

Biological target: T2, human Fcγ receptor hFcgRIIIa (V)
Test: SPR, antibody captured on Protein A
Remark: another data set of the same source
Protocol: as §3, §2
For B6, the “binding relative to G1 (=100)” value was 130. For B7, the “binding relative to G1 (=100)” value was 28.9. For B8, the “binding relative to G1 (=100)” value was 1.4. In the case of B9, the “binding relative to G1 (=100)” value is reported as 86.2.

Biological target: T3, human Fcγ receptor hFcgRIIa (H)
Test: SPR, antibody captured on Protein A
Remark: another data set of the same source
Protocol: as §3, §2
B6 was tested, and the “binding relative to G1 (=100)” value was 123. B7 was tested, and the “binding relative to G1 (=100)” value was 15.9. For B8, the “binding relative to G1 (=100)” value was 1.2.

Biological target: T4, human Fcγ receptor hFcgRIIb
Test: SPR, antibody captured on Protein A
Remark: another data set of the same source
Protocol: as §3, §2
In the case of B6, the “binding relative to G1 (=100)” value is reported as 61.6. In the case of B7, the “binding relative to G1 (=100)” value is reported as 21.7. With B8 the “binding relative to G1 (=100)” value was 3.4. With B9 the “binding relative to G1 (=100)” value was 126.

Biological target: T5, human Fcγ receptor hFcgRIIa (R)
Test: SPR, antibody captured on Protein A
Remark: another data set of the same source
Protocol: as §3, §2
With B6 the “binding relative to G1 (=100)” value was 67.3. With B7 the “binding relative to G1 (=100)” value was 25.3. With B8 the “binding relative to G1 (=100)” value was 1.2. For B9, the “binding relative to G1 (=100)” value was 117.
